According to patent US20190016816A1 (APTEVO RESEARCH AND DEVELOPMENT, published 2019):

Columns and labels:
human 5T4 on cells [1] = target: T1, human 5T4 on cells (human, UniProt Q13641 32-420); assay: flow cytometry, CHO-K1 cells expressing human 5T4, labelled anti-human IgG secondary, MFI (mean)
T1 construct: also called TPBG; hu5T4
T1 sequence: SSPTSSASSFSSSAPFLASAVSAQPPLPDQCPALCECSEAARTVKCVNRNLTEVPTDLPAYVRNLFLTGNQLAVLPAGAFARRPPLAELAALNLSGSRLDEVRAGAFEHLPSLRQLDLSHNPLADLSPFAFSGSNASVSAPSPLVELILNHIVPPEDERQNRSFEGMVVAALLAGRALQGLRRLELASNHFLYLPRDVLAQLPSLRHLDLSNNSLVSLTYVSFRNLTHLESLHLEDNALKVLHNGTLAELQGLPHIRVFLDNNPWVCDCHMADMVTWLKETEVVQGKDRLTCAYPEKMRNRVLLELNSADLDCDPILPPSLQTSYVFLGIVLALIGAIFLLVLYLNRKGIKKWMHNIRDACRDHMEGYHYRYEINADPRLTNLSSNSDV
Protocol: (§1) Binding studies were performed by standard flow cytometry-based staining procedures two cell lines expressing 5T4:CHO-K1 cells (obtained from Alligator) transduced with human or cynomolgus macaque 5T4 and SKOV-3 human ovarian adenocarcinoma cells which express (human) 5T4. All labeling and washes were performed in U-bottom 96-well plates in saline buffer with 0.1% BSA and 2 mM EDTA. Cell were plated at approximately 100,000 cells per well and incubated with a range of 100 nM to 0.05 nM concentrations of test molecules in […], for 30 minutes on ice. Cells were washed three times then incubated for another 30 min on ice with fluorescently-labeled secondary polyclonal antibody, F(ab′)² goat anti-human IgG (Jackson ImmunoResearch Laboratories). The cells were then washed twice and the samples acquired in a BD LSRII or a Symphony A3 flow cytometer. The sample files were analyzed using FlowJo software; the mean fluorescence intensity (MFI-mean) or median fluorescence intensity (MFI-median) of the live population of cells in each well was calculated after gating on live cells (forward vs side scatter). Nonlinear regression analysis to determine EC₅₀ values was performed in GraphPad Prism 6® graphing and statistics software.

human 5T4 on cells [2] = target: T1, human 5T4 on cells; assay: flow cytometry, SKOV-3 cells (endogenous human 5T4), labelled anti-human IgG secondary, MFI (mean)
Protocol: as §1

human CD137 on cells = human CD137 on cells (human, UniProt Q07011 24-255); assay: cell-based or functional assay
Chain of human CD137 on cells (Q07011 24-255 limits assumed): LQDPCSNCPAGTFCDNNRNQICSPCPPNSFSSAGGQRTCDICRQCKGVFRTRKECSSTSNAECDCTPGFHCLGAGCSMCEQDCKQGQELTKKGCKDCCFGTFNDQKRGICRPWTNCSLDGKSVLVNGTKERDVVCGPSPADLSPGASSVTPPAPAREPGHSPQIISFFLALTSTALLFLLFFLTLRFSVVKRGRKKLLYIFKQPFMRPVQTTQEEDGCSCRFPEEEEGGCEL

[3] = target: cynomolgus CD137 on cells (cynomolgus macaque, UniProt A9YYE7 24-254); assay: cell-based or functional assay
Chain of cynomolgus CD137 on cells (A9YYE7 entry or part of it): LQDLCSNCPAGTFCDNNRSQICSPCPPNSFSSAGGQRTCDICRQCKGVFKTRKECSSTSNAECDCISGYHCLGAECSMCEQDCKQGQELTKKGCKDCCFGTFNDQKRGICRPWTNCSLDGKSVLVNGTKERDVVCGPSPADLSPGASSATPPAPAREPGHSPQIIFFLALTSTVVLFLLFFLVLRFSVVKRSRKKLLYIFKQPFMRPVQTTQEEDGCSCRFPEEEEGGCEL

human 5T4 on cells [4] = target: T1, human 5T4 on cells; assay: flow cytometry, CHO/5T4 cells, PE goat anti-human Fc
Protocol: A 3-fold titration of ALG.APV-210 construct (ranging from 100 nM to 0.14 nM) was incubated with the human 5T4-expressing cell lines for 40 minutes in FACS buffer at 4° C., washed 3 times, and detected with PE-labeled, goat-anti-human Fc secondary antibody (Jackson ImmunoResearch). Binding of ALG.APV-210 was detected by flow cytometry. All samples were run in duplicates. Nonlinear regression analysis to determine EC₅₀ values was performed in GraphPad Prism 6® graphing and statistics software.

human 5T4 on cells [5] = target: T1, human 5T4 on cells; assay: flow cytometry, HT29 cells (endogenous human 5T4), biotinylated ALG.APV-210 + streptavidin-PE, 1 of 2 experiments
Protocol: (§2) Prior to the FACS staining, all cell lines were characterized for their 5T4 expression levels using a receptor density kit (Quantum Simply Cellular, anti-human IgG, Bangs Laboratories, Inc). Adherent cell lines were cultured according to their supplier's instructions and were harvested from their cell culture flasks using Trypsin/EDTA, counted in R10 medium in a Burker chamber, and diluted in FACS buffer (PBS+0.5% BSA, 0.05% NaN₃) to a concentration of 4×10⁶ cells/mL. 50 μL (0.20×10⁶) of cell solution was added to a 96-well FACS staining plate (Falcon #351190). Cells were incubated for 20 min in 4° C. with 50 μL of the biotinylated ALG.APV-210 (2× final concentration). The antibodies were added in a serial dilution starting at 20 μg/mL titrating down in a 12 step ½ dilution down to 0.010 μg/mL. […] Cells were analysed for ALG.APV-210 binding using flow cytometry (FACSVerse) by gating on single cells. MFI values (secondary antibody only subtracted) from 1 out of 2 independent experiments, as well as normalized data and EC₅₀-values of pooled data from 2 experiments were determined and plotted using GraphPad Prism 7, non-linear regression log (agonist) vs. normalized response—variable slope.
(§3) The binding (EC₅₀) of the biotinylated ALG.APV-210 to 5T4 when expressed on cells, either at endogenous levels on human tumor cells or on cells transfected to express 5T4 was assessed. […]

human 5T4 on cells [6] = target: T1, human 5T4 on cells; assay: flow cytometry, CT26 cells transfected with human 5T4 (intermediate clone), biotinylated ALG.APV-210 + streptavidin-PE, 1 of 2 experiments
Protocol: as §2, §3

B1: ALG.APV-187 (bispecific antibody)
chain: EVQLLESGGGLVQPGGSLRLSCAASGFTFSHGSMYWVRQAPGKGLEWVSSISSGSGSTYYADSVKGRFTISHDNSKNTLYLQMNSLRAEDTAVYYCARSSYYGSYYSIDYWGQGTLVTVSSGGGGSGGGGSGGGGSGGGGSDIQMTQSPSSLSASVGDRVTITCRASQSISSYLNWYQQKPGKAPKLLIYAASSLQSGVPSRFSGSGSGTDFTLTISSLQPEDFATYYCQQYYDNLPTFGQGTKLEIKSSEPKSSDKTHTCPPCPAPEAAGAPSVFLFPPKPKDTLMISRTPEVTCVVVDVSHEDPEVKFNWYVDGVEVHNAKTKPREEQYNSTYRVVSVLTVLHQDWLNGKEYKCAVSNKALPAPIEKTISKAKGQPREPQVYTLPPSRDELTKNQVSLTCLVKGFYPSDIAVEWESNGQPENNYKTTPPVLDSDGSFFLYSKLTVDKSRWQQGNVFSCSVMHEALHNHYTQKSLSLSPGSGGGGSGGGGSGGGGSPSEVQLLESGGGLVQPGGSLRLSCAASGFTFSSYAMSWVRQAPGKCLEWVSAISGSGGSTYYADSVKGRFTISRDNSKNTLYLQMNSLRAEDTAVYYCARYYGGYYSAWMDYWGQGTLVTVSSGGGGSGGGGSGGGGSGGGGSDIQMTQSPSSLSASVGDRVTITCRASQSISSFLNWYQQKPGKAPKLLIYAASSLQSGVPSRFSGSGSGTDFTLTISSLQPEDSATYYCQQTYGYLHTFGCGTKLEIKR
notes: Optimized ADAPTIR scFv-Fc-scFv homodimer with stabilizing disulfide in the 1210 scFv
With B1 the EC50 (human 5T4 on cells [1]) was 5.6 nM, the “Maximum MFI” value (human 5T4 on cells [1]) was 13500 and the EC50 (human 5T4 on cells [2]) was 9.2 nM. For the same binder, the “Maximum MFI” value (human 5T4 on cells [2]) was 1800.

B2: ALG.APV-210 (bispecific antibody)
chain: EVQLLESGGGLVQPGGSLRLSCAASGFTFSHGSMYWVRQAPGKGLEWVSSISSGSGSTYYADSVKGRFTISHDNSKNTLYLQMNSLRAEDTAVYYCARSSYYGSYYSIDYWGQGTLVTVSSGGGGSGGGGSGGGGSGGGGSDIQMTQSPSSLSASVGDRVTITCRASQSISSYLNWYQQKPGKAPKLLIYAASSLQSGVPSRFSGSGSGTDFTLTISSLQPEDFATYYCQQYYDNLPTFGQGTKLEIKEPKSSDKTHTCPPCPAPEAAGAPSVFLFPPKPKDTLMISRTPEVTCVVVDVSHEDPEVKFNWYVDGVEVHNAKTKPREEQYNSTYRVVSVLTVLHQDWLNGKEYKCAVSNKALPAPIEKTISKAKGQPREPQVYTLPPSRDELTKNQVSLTCLVKGFYPSDIAVEWESNGQPENNYKTTPPVLDSDGSFFLYSKLTVDKSRWQQGNVFSCSVMHEALHNHYTQKSLSLSPGSGGGGSGGGGSGGGGSPSEVQLLESGGGLVQPGGSLRLSCAASGFTFSSYAMSWVRQAPGKCLEWVSAISGSGGSTYYADSVKGRFTISRDNSKNTLYLQMNSLRAEDTAVYYCARYYGGYYSAWMDYWGQGTLVTVSSGGGGSGGGGSGGGGSGGGGSDIQMTQSPSSLSASVGDRVTITCRASQSISSFLNWYQQKPGKAPKLLIYAASSLQSGVPSRFSGSGSGTDFTLTISSLQPEDSATYYCQQTYGYLHTFGCGTKLEIKR
notes: Optimized ADAPTIR scFv-Fc-scFv homodimer with stabilizing disulfide in the 1210 scFv; also called 5T4-CD137 bispecific antibody
B2 was tested, and the “EC50 (nM), IFNγ release of human CD8 T cells on plate immobilized 5T4-Fc and anti-CD3” value (human CD137 on cells) was 0.2 nM, the “EC50 (nM), IFNγ release of cynomolgus CD8 T cells on plate immobilized 5T4-Fc and anti-CD3” value [3] was 0.4 nM and the EC50 (human 5T4 on cells [4]) was 10 nM.

B3: biotinylated ALG.APV-210 (bispecific antibody)
chain: B2 chain
notes: also called ALG.APV-210 (biotinylated for FACS detection)
For B3, the “EC50 (read off the curve)” value (human 5T4 on cells [5]) was roughly 10 nM and the “EC50 (read off the curve)” value (human 5T4 on cells [6]) was roughly 10 nM.
